Assay results as given in paper PMC6945063 (2019).

Molecular target: His‐GABARAP‐L2 S87/88D (human, UniProt P60520 1-117, S87/88D | S87/88D)
Experiment: BLI

B1: GST‐ATG4A (enzyme)
chain: MESVLSKYEDQITIFTDYLEEYPDTDELVWILGKQHLLKTEKSKLLSDISARLWFTYRRKFSPIGGTGPSSDAGWGCMLRCGQMMLAQALICRHLGRDWSWEKQKEQPKEYQRILQCFLDRKDCCYSIHQMAQMGVGEGKSIGEWFGPNTVAQVLKKLALFDEWNSLAVYVSMDNTVVIEDIKKMCRVLPLSADTAGDRPPDSLTASNQSKGTSAYCSAWKPLLLIVPLRLGINQINPVYVDAFKECFKMPQSLGALGGKPNNAYYFIGFLGDELIFLDPHTTQTFVDTEENGTVNDQTFHCLQSPQRMNILNLDPSVALGFFCKEEKDFDNWCSLVQKEILKENLRMFELVQKHPSHWPPFVPPAKPEVTTTGAEFIDSTEQLEEFDLEEDFEILSV
In the case of B1, the Kd is reported as 24 µM.
